system: human HL60 cells; assay: SWATH-MS proteomics, differential protein representation, akirin2 KO vs WT HL60 cells; assay type: cell-based; conditions: SWATH-MS, akirin2 KO vs WT HL60 cells; sheet "Under-represented in KO"
Summary of the method: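 First, proteins from wild-type and knockout cells are digested with trypsin by FASP. Next, pooled IDA runs generate a reference ion library. Then six samples of 5 µg each are acquired by data-independent SWATH, and protein areas are normalized to the summed area of all detected proteins.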

Row | Molecule | Fold Change | Log (Fold Change)
1 | sp¦Q96E11¦RRFM_HUMAN (protein, UniProt Q96E11 56-262, looked up) Ribosome-recycling factor, …: ATKKAKAKGKGQSQTRVNINAALVEDIINLEEVNEEMKSVIEALKDNFNKTLNIRTSPGSLDKIAVVTADGKLALNQISQISMKSPQLILVNMASFPECTAAAIKAIRESGMNLNPEVEGTLIRVPIPQVTREHREMLVKLAKQNTNKAKDSLRKVRTNSMNKLKKSKDTVSEDTIRLIEKQISQMADDTVAELDRHLAVKTKELLG | 0.7929 | -0.1008

same assay, conditions: akirin2 KO vs WT HL60 cells; sheet "Under-represented in KO"

Row | Molecule | Fold Change | Log (Fold Change)
2 | sp¦Q9Y383¦LC7L2_HUMAN (protein, UniProt Q9Y383 1-392, looked up) Putative RNA-binding protein …: MSAQAQMRAMLDQLMGTSRDGDTTRQRIKFSDDRVCKSHLLNCCPHDVLSGTRMDLGECLKVHDLALRADYEIASKEQDFFFELDAMDHLQSFIADCDRRTEVAKKRLAETQEEISAEVAAKAERVHELNEEIGKLLAKVEQLGAEGNVEESQKVMDEVEKARAKKREAEEVYRNSMPASSFQQQKLRVCEVCSAYLGLHDNDRRLADHFGGKLHLGFIEIREKLEELKRVVAEKQEKRNQERLKRREEREREEREKLRRSRSHSKNPKRSRSREHRRHRSRSMSRERKRRTRSKSREKRHRHRSRSSSRSRSRSHQRSRHSSRDRSRERSKRRSSKERFRDQDLASCDRDRSSRDRSPRDRDRKDKKRSYESANGRSEDRRSSEEREAGEI | 0.3527 | -0.4526
3 | sp¦Q9BVI4¦NOC4L_HUMAN (protein, UniProt Q9BVI4 1-516, looked up) Nucleolar complex protein 4 …: MEREPGAAGVRRALGRRLEAVLASRSEANAVFDILAVLQSEDQEEIQEAVRTCSRLFGALLERGELFVGQLPSEEMVMTGSQGATRKYKVWMRHRYHSCCNRLGELLGHPSFQVKELALSALLKFVQLEGAHPLEKSKWEGNYLFPRELFKLVVGGLLSPEEDQSLLLSQFREYLDYDDTRYHTMQAAVDAVARVTGQHPEVPPAFWNNAFTLLSAVSLPRREPTVSSFYVKRAELWDTWKVAHLKEHRRVFQAMWLSFLKHKLPLSLYKKVLLIVHDAILPQLAQPTLMIDFLTRACDLGGALSLLALNGLFILIHKHNLEYPDFYRKLYGLLDPSVFHVKYRARFFHLADLFLSSSHLPAYLVAAFAKRLARLALTAPPEALLMVLPFICNLLRRHPACRVLVHRPHGPELDADPYDPGEEDPAQSRALESSLWELQALQRHYHPEVSKAASVINQALSMPEVSIAPLLELTAYEIFERDLKKKGPEPVPLEFIPAQGLLGRPGELCAQHFTLS | 0.3572 | -0.4471
4 | sp¦Q29RF7¦PDS5A_HUMAN (protein, UniProt Q29RF7 1-1337, looked up) Sister chromatid cohesion …: MDFTAQPKPATALCGVVSADGKIAYPPGVKEITDKITTDEMIKRLKMVVKTFMDMDQDSEDEKQQYLPLALHLASEFFLRNPNKDVRLLVACCLADIFRIYAPEAPYTSHDKLKDIFLFITRQLKGLEDTKSPQFNRYFYLLENLAWVKSYNICFELEDCNEIFIQLFRTLFSVINNSHNKKVQMHMLDLMSSIIMEGDGVTQELLDSILINLIPAHKNLNKQSFDLAKVLLKRTVQTIEACIANFFNQVLVLGRSSVSDLSEHVFDLIQELFAIDPHLLLSVMPQLEFKLKSNDGEERLAVVRLLAKLFGSKDSDLATQNRPLWQCFLGRFNDIHVPVRLESVKFASHCLMNHPDLAKDLTEYLKVRSHDPEEAIRHDVIVTIITAAKRDLALVNDQLLGFVRERTLDKRWRVRKEAMMGLAQLYKKYCLHGEAGKEAAEKVSWIKDKLLHIYYQNSIDDKLLVEKIFAQYLVPHNLETEERMKCLYYLYASLDPNAVKALNEMWKCQNMLRSHVRELLDLHKQPTSEANCSAMFGKLMTIAKNLPDPGKAQDFVKKFNQVLGDDEKLRSQLELLISPTCSCKQADICVREIARKLANPKQPTNPFLEMVKFLLERIAPVHIDSEAISALVKLMNKSIEGTADDEEEGVSPDTAIRSGLELLKVLSFTHPTSFHSAETYESLLQCLRMEDDKVAEAAIQIFRNTGHKIETDLPQIRSTLIPILHQKAKRGTPHQAKQAVHCIHAIFTNKEVQLAQIFEPLSRSLNADVPEQLITPLVSLGHISMLAPDQFASPMKSVVANFIVKDLLMNDRSTGEKNGKLWSPDEEVSPEVLAKVQAIKLLVRWLLGMKNNQSKSANSTLRLLSAMLVSEGDLTEQKRISKSDMSRLRLAAGSAIMKLAQEPCYHEIITPEQFQLCALVINDECYQVRQIFAQKLHKALVKLLLPLEYMAIFALCAKDPVKERRAHARQCLLKNISIRREYIKQNPMATEKLLSLLPEYVVPYMIHLLAHDPDFTRSQDVDQLRDIKECLWFMLEVLMTKNENNSHAFMKKMAENIKLTRDAQSPDESKTNEKLYTVCDVALCVINSKSALCNADSPKDPVLPMKFFTQPEKDFCNDKSYISEETRVLLLTGKPKPAGVLGAVNKPLSATGRKPYVRSTGTETGSNINVNSELNPSTGNRSREQSSEAAETGVSENEENPVRIISVTPVKNIDPVKNKEINSDQATQGNISSDRGKKRTVTAAGAENIQQKTDEKVDESGPPAPSKPRRGRRPKSESQGNATKNDDLNKPINKGRKRAAVGQESPGGLEAGNAKAPKLQDLAKKAAPAERQIDLQR | 0.08984 | -1.047
5 | sp¦P63151¦2ABA_HUMAN (protein, UniProt P63151 2-447, looked up) Serine/threonine-protein …: AGAGGGNDIQWCFSQVKGAVDDDVAEADIISTVEFNHSGELLATGDKGGRVVIFQQEQENKIQSHSRGEYNVYSTFQSHEPEFDYLKSLEIEEKINKIRWLPQKNAAQFLLSTNDKTIKLWKISERDKRPEGYNLKEEDGRYRDPTTVTTLRVPVFRPMDLMVEASPRRIFANAHTYHINSISINSDYETYLSADDLRINLWHLEITDRSFNIVDIKPANMEELTEVITAAEFHPNSCNTFVYSSSKGTIRLCDMRASALCDRHSKLFEEPEDPSNRSFFSEIISSISDVKFSHSGRYMMTRDYLSVKIWDLNMENRPVETYQVHEYLRSKLCSLYENDCIFDKFECCWNGSDSVVMTGSYNNFFRMFDRNTKRDITLEASRENNKPRTVLKPRKVCASGKRKKDEISVDSLDFNKKILHTAWHPKENIIAVATTNNLYIFQDKVN | 0.3625 | -0.4407
6 | sp¦Q9GZY6¦NTAL_HUMAN (protein, UniProt Q9GZY6 1-243, looked up) Linker for activation of …: MSSGTELLWPGAALLVLLGVAASLCVRCSRPGAKRSEKIYQQRSLREDQQSFTGSRTYSLVGQAWPGPLADMAPTRKDKLLQFYPSLEDPASSRYQNFSKGSRHGSEEAYIDPIAMEYYNWGRFSKPPEDDDANSYENVLICKQKTTETGAQQEGIGGLCRGDLSLSLALKTGPTSGLCPSASPEEDEESEDYQNSASIHQWRESRKVMGQLQREASPGPVGSPDEEDGEPDYVNGEVAATEA | 0.3739 | -0.4273
7 | sp¦P00387¦NB5R3_HUMAN (protein, UniProt P00387 2-301, looked up) NADH-cytochrome b5 reductase 3: GAQLSTLGHMVLFPVWFLYSLLMKLFQRSTPAITLESPDIKYPLRLIDREIISHDTRRFRFALPSPQHILGLPVGQHIYLSARIDGNLVVRPYTPISSDDDKGFVDLVIKVYFKDTHPKFPAGGKMSQYLESMQIGDTIEFRGPSGLLVYQGKGKFAIRPDKKSNPIIRTVKSVGMIAGGTGITPMLQVIRAIMKDPDDHTVCHLLFANQTEKDILLRPELEELRNKHSARFKLWYTLDRAPEAWDYGQGFVNEEMIRDHLPPPEEEPLVLMCGPPPMIQYACLPNLDHVGHPTERCFVF | 0.3747 | -0.4263
8 | sp¦Q16822¦PCKGM_HUMAN (protein, UniProt Q16822 33-640, looked up) Phosphoenolpyruvate …: LSGDLGQLPTGIRDFVEHSARLCQPEGIHICDGTEAENTATLTLLEQQGLIRKLPKYNNCWLARTDPKDVARVESKTVIVTPSQRDTVPLPPGGARGQLGNWMSPADFQRAVDERFPGCMQGRTMYVLPFSMGPVGSPLSRIGVQLTDSAYVVASMRIMTRLGTPVLQALGDGDFVKCLHSVGQPLTGQGEPVSQWPCNPEKTLIGHVPDQREIISFGSGYGGNSLLGKKCFALRIASRLARDEGWLAEHMLILGITSPAGKKRYVAAAFPSACGKTNLAMMRPALPGWKVECVGDDIAWMRFDSEGRLRAINPENGFFGVAPGTSATTNPNAMATIQSNTIFTNVAETSDGGVYWEGIDQPLPPGVTVTSWLGKPWKPGDKEPCAHPNSRFCAPARQCPIMDPAWEAPEGVPIDAIIFGGRRPKGVPLVYEAFNWRHGVFVGSAMRSESTAAAEHKGKIIMHDPFAMRPFFGYNFGHYLEHWLSMEGRKGAQLPRIFHVNWFRRDEAGHFLWPGFGENARVLDWICRRLEGEDSARETPIGLVPKEGALDLSGLRAIDTTQLFSLPKDFWEQEVRDIRSYLTEQVNQDLPKEVLAELEALERRVHKM | 0.1415 | -0.8493
9 | sp¦Q9HAV4¦XPO5_HUMAN (protein, UniProt Q9HAV4 2-1204, looked up) Exportin-5: AMDQVNALCEQLVKAVTVMMDPNSTQRYRLEALKFCEEFKEKCPICVPCGLRLAEKTQVAIVRHFGLQILEHVVKFRWNGMSRLEKVYLKNSVMELIANGTLNILEEENHIKDALSRIVVEMIKREWPQHWPDMLIELDTLSKQGETQTELVMFILLRLAEDVVTFQTLPPQRRRDIQQTLTQNMERIFSFLLNTLQENVNKYQQVKTDTSQESKAQANCRVGVAALNTLAGYIDWVSMSHITAENCKLLEILCLLLNEQELQLGAAECLLIAVSRKGKLEDRKPLMVLFGDVAMHYILSAAQTADGGGLVEKHYVFLKRLCQVLCALGNQLCALLGADSDVETPSNFGKYLESFLAFTTHPSQFLRSSTQMTWGALFRHEILSRDPLLLAIIPKYLRASMTNLVKMGFPSKTDSPSCEYSRFDFDSDEDFNAFFNSSRAQQGEVMRLACRLDPKTSFQMAGEWLKYQLSTFLDAGSVNSCSAVGTGEGSLCSVFSPSFVQWEAMTLFLESVITQMFRTLNREEIPVNDGIELLQMVLNFDTKDPLILSCVLTNVSALFPFVTYRPEFLPQVFSKLFSSVTFETVEESKAPRTRAVRNVRRHACSSIIKMCRDYPQLVLPNFDMLYNHVKQLLSNELLLTQMEKCALMEALVLISNQFKNYERQKVFLEELMAPVASIWLSQDMHRVLSDVDAFIAYVGTDQKSCDPGLEDPCGLNRARMSFCVYSILGVVKRTCWPTDLEEAKAGGFVVGYTSSGNPIFRNPCTEQILKLLDNLLALIRTHNTLYAPEMLAKMAEPFTKALDMLDAEKSAILGLPQPLLELNDSPVFKTVLERMQRFFSTLYENCFHILGKAGPSMQQDFYTVEDLATQLLSSAFVNLNNIPDYRLRPMLRVFVKPLVLFCPPEHYEALVSPILGPLFTYLHMRLSQKWQVINQRSLLCGEDEAADENPESQEMLEEQLVRMLTREVMDLITVCCVSKKGADHSSAPPADGDDEEMMATEVTPSAMAELTDLGKCLMKHEDVCTALLITAFNSLAWKDTLSCQRTTSQLCWPLLKQVLSGTLLADAVTWLFTSVLKGLQMHGQHDGCMASLVHLAFQIYEALRPRYLEIRAVMEQIPEIQKDSLDQFDCKLLNPSLQKVADKRRKDQFKRLIAGCIGKPLGEQFRKEVHIKNLPSLFKKTKPMLETEVLDNDGGGLATIFEP | 0.4142 | -0.3828
